{
  "source": "patent US20080102072A1",
  "key": {"[1]": {"target": "human IFNAR1, membrane receptor on cells (U266 human myeloma cells; Hela and A549 cells in the functional assays) (human) (UniProt P17181)", "sequence (P17181 28-557)": "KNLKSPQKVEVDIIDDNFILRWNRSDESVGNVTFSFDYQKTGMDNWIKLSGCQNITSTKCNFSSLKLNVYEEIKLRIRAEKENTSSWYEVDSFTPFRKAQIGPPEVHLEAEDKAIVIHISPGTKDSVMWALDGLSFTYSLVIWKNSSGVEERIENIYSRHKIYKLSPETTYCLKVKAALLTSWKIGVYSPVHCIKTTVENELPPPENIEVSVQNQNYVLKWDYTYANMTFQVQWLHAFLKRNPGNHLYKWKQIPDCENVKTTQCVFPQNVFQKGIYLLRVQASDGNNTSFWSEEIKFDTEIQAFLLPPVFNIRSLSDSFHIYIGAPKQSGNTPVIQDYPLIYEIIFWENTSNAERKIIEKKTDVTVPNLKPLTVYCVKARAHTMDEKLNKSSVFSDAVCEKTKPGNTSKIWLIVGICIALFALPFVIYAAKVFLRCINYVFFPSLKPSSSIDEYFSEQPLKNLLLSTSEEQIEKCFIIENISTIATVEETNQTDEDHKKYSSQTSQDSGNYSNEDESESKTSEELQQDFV", "assay": "flow cytometry on U266 cells, fluoresceinated control IgG, no soluble hIFNAR1"}, "[2]": {"target": "hIFNAR1 ECD-IgG fusion protein (immunoadhesin, pRK5 hIFNAR1-IgG clone 53.65), wild type (human)", "sequence (chain, as listed by the source limits assumed)": "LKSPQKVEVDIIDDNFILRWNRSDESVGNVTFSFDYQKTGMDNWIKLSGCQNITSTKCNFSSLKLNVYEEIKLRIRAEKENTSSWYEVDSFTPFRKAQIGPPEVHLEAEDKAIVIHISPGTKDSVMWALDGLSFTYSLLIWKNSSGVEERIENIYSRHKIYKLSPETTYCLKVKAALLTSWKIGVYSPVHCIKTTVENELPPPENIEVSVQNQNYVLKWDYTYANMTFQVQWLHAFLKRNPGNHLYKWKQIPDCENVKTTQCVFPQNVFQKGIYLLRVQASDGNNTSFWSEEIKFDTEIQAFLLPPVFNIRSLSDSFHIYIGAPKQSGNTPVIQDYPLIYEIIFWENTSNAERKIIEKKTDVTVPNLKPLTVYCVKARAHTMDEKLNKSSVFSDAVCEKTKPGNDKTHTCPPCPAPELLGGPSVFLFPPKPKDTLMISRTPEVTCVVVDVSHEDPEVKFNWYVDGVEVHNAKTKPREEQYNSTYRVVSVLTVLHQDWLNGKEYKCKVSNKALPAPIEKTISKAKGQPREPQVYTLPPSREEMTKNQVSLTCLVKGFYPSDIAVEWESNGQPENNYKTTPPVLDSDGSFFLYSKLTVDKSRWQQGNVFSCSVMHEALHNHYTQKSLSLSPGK", "assay": "competitive radioimmunoprecipitation with 125I-hIFNAR1-IgG and unlabeled hIFNAR1-IgG, Scatchard analysis"}, "[3]": {"target": "IFNAR1-IgG multiple alanine mutant 3, residues 76-80 (RAEKE to AAAAA) (human)", "sequence (chain, as listed by the source mutant limits assumed)": "as the sequence (chain, as listed by the source limits assumed) above, with R76A, E78A, K79A, E80A counted along it", "assay": "capture ELISA, mutant IFNAR1-IgG captured by goat anti-hIgG-Fc, mAb 10 µg/ml; OD as % of wild type IFNAR1-IgG"}, "[4]": {"target": "IFNAR1-IgG multiple alanine mutant 8, residues 291-298 (EEIKFDTE to AAIAFATA) (human)", "sequence (chain, as listed by the source mutant limits assumed)": "as the sequence (chain, as listed by the source limits assumed) above, with E291A, E292A, K294A, D296A, E298A counted along it", "assay": "capture ELISA, mutant IFNAR1-IgG captured by goat anti-hIgG-Fc, mAb 10 µg/ml; OD as % of wild type IFNAR1-IgG"}, "[5]": {"target": "IFNAR1-IgG multiple alanine mutant 4, residues 103-111 (… to …) (human)", "sequence (chain, as listed by the source mutant limits assumed)": "as the sequence (chain, as listed by the source limits assumed) above, with E103A, H105A, E107A, E109A, D110A, K111A counted along it", "assay": "capture ELISA, mutant IFNAR1-IgG captured by goat anti-hIgG-Fc, mAb 10 µg/ml; OD as % of wild type IFNAR1-IgG"}, "[6]": {"target": "IFNAR1-IgG multiple alanine mutant 1, residues 19-25 (RWNRSDE to AWNASAA) (human)", "sequence (chain, as listed by the source mutant limits assumed)": "as the sequence (chain, as listed by the source limits assumed) above, with R19A, R22A, D24A, E25A counted along it", "assay": "capture ELISA, mutant IFNAR1-IgG captured by goat anti-hIgG-Fc, mAb 10 µg/ml; OD as % of wild type IFNAR1-IgG"}, "[7]": {"target": "IFNAR1-IgG multiple alanine mutant 10, residues 383-388 (DEKLNK to AAALNA) (human)", "sequence (chain, as listed by the source mutant limits assumed)": "as the sequence (chain, as listed by the source limits assumed) above, with D383A, E384A, K385A, K388A counted along it", "assay": "capture ELISA, mutant IFNAR1-IgG captured by goat anti-hIgG-Fc, mAb 10 µg/ml; OD as % of wild type IFNAR1-IgG"}, "[8]": {"target": "IFNAR1-IgG multiple alanine mutant 6, residues 157-162 (RHKIYK to AAAIYA) (human)", "sequence (chain, as listed by the source mutant limits assumed)": "as the sequence (chain, as listed by the source limits assumed) above, with R157A, H158A, K159A, K162A counted along it", "assay": "capture ELISA, mutant IFNAR1-IgG captured by goat anti-hIgG-Fc, mAb 10 µg/ml; OD as % of wild type IFNAR1-IgG"}, "[9]": {"target": "IFNAR1-IgG multiple alanine mutant 5, residues 148-152 (EERIE to AAAIA) (human)", "sequence (chain, as listed by the source mutant limits assumed)": "as the sequence (chain, as listed by the source limits assumed) above, with E148A, E149A, R150A, E152A counted along it", "assay": "capture ELISA, mutant IFNAR1-IgG captured by goat anti-hIgG-Fc, mAb 10 µg/ml; OD as % of wild type IFNAR1-IgG"}, "[10]": {"target": "IFNAR1-IgG multiple alanine mutant 2, residues 69-74 (EEIKLR to AAIALA) (human)", "sequence (chain, as listed by the source mutant limits assumed)": "as the sequence (chain, as listed by the source limits assumed) above, with E69A, E70A, K72A, R74A counted along it", "assay": "capture ELISA, mutant IFNAR1-IgG captured by goat anti-hIgG-Fc, mAb 10 µg/ml; OD as % of wild type IFNAR1-IgG"}, "[11]": {"target": "IFNAR1-IgG multiple alanine mutant 9, residues 352-359 (ERKIIEKK to AAAIIAAA) (human)", "sequence (chain, as listed by the source mutant limits assumed)": "as the sequence (chain, as listed by the source limits assumed) above, with E352A, R353A, K354A, E357A, K358A, K359A counted along it", "assay": "capture ELISA, mutant IFNAR1-IgG captured by goat anti-hIgG-Fc, mAb 10 µg/ml; OD as % of wild type IFNAR1-IgG"}, "[12]": {"target": "IFNAR1-IgG multiple alanine mutant 7, residues 244-249 (HLYKWK to ALYAWA) (human)", "sequence (chain, as listed by the source mutant limits assumed)": "as the sequence (chain, as listed by the source limits assumed) above, with H244A, K247A, K249A counted along it", "assay": "capture ELISA, mutant IFNAR1-IgG captured by goat anti-hIgG-Fc, mAb 10 µg/ml; OD as % of wild type IFNAR1-IgG"}, "[13]": {"target": "human IFNAR1, membrane receptor on cells (U266 human myeloma cells; Hela and A549 cells in the functional assays) (human) (UniProt P17181)", "assay": "flow cytometry on U266 cells, F-mAb preincubated with competitor: 10 µg soluble wild type hIFNAR1-IgG"}, "[14]": {"target": "human IFNAR1, membrane receptor on cells (U266 human myeloma cells; Hela and A549 cells in the functional assays) (human) (UniProt P17181)", "assay": "flow cytometry on U266 cells, F-mAb preincubated with competitor: 10 µg soluble hIFNAR1-IgG Mutant #8 (291-298)"}, "[15]": {"target": "IFNAR1-IgG single alanine mutant E298A (human)", "sequence (chain, as listed by the source E298A E298A limits assumed)": "as the sequence (chain, as listed by the source limits assumed) above, with E298A counted along it", "assay": "capture ELISA, single alanine mutant IFNAR1-IgG captured by goat anti-hIgG-Fc; OD as % of wild type IFNAR1-IgG"}, "[16]": {"target": "IFNAR1-IgG single alanine mutant E292A (human)", "sequence (chain, as listed by the source E292A E292A limits assumed)": "as the sequence (chain, as listed by the source limits assumed) above, with E292A counted along it", "assay": "capture ELISA, single alanine mutant IFNAR1-IgG captured by goat anti-hIgG-Fc; OD as % of wild type IFNAR1-IgG"}, "[17]": {"target": "IFNAR1-IgG single alanine mutant K294A (human)", "sequence (chain, as listed by the source K294A K294A limits assumed)": "as the sequence (chain, as listed by the source limits assumed) above, with K294A counted along it", "assay": "capture ELISA, single alanine mutant IFNAR1-IgG captured by goat anti-hIgG-Fc; OD as % of wild type IFNAR1-IgG"}, "[18]": {"target": "IFNAR1-IgG single alanine mutant D296A (human)", "sequence (chain, as listed by the source D296A D296A limits assumed)": "as the sequence (chain, as listed by the source limits assumed) above, with D296A counted along it", "assay": "capture ELISA, single alanine mutant IFNAR1-IgG captured by goat anti-hIgG-Fc; OD as % of wild type IFNAR1-IgG"}, "[19]": {"target": "IFNAR1-IgG single alanine mutant E291A (human)", "sequence (chain, as listed by the source E291A E291A limits assumed)": "as the sequence (chain, as listed by the source limits assumed) above, with E291A counted along it", "assay": "capture ELISA, single alanine mutant IFNAR1-IgG captured by goat anti-hIgG-Fc; OD as % of wild type IFNAR1-IgG"}, "[20]": {"target": "IFNAR1-IgG single alanine mutant K72A (human)", "sequence (chain, as listed by the source K72A K72A limits assumed)": "as the sequence (chain, as listed by the source limits assumed) above, with K72A counted along it", "assay": "capture ELISA, single alanine mutant IFNAR1-IgG captured by goat anti-hIgG-Fc; OD as % of wild type IFNAR1-IgG"}, "[21]": {"target": "IFNAR1-IgG single alanine mutant K247A (human)", "sequence (chain, as listed by the source K247A K247A limits assumed)": "as the sequence (chain, as listed by the source limits assumed) above, with K247A counted along it", "assay": "capture ELISA, single alanine mutant IFNAR1-IgG captured by goat anti-hIgG-Fc; OD as % of wild type IFNAR1-IgG"}, "[22]": {"target": "IFNAR1-IgG single alanine mutant R74A (human)", "sequence (chain, as listed by the source R74A R74A limits assumed)": "as the sequence (chain, as listed by the source limits assumed) above, with R74A counted along it", "assay": "capture ELISA, single alanine mutant IFNAR1-IgG captured by goat anti-hIgG-Fc; OD as % of wild type IFNAR1-IgG"}, "[23]": {"target": "IFNAR1-IgG single alanine mutant H244A (human)", "sequence (chain, as listed by the source H244A H244A limits assumed)": "as the sequence (chain, as listed by the source limits assumed) above, with H244A counted along it", "assay": "capture ELISA, single alanine mutant IFNAR1-IgG captured by goat anti-hIgG-Fc; OD as % of wild type IFNAR1-IgG"}, "[24]": {"target": "IFNAR1-IgG single alanine mutant E70A (human)", "sequence (chain, as listed by the source E70A E70A limits assumed)": "as the sequence (chain, as listed by the source limits assumed) above, with E70A counted along it", "assay": "capture ELISA, single alanine mutant IFNAR1-IgG captured by goat anti-hIgG-Fc; OD as % of wild type IFNAR1-IgG"}, "[25]": {"target": "IFNAR1-IgG single alanine mutant E69A (human)", "sequence (chain, as listed by the source E69A E69A limits assumed)": "as the sequence (chain, as listed by the source limits assumed) above, with E69A counted along it", "assay": "capture ELISA, single alanine mutant IFNAR1-IgG captured by goat anti-hIgG-Fc; OD as % of wild type IFNAR1-IgG"}, "[26]": {"target": "IFNAR1-IgG single alanine mutant K249A (human)", "sequence (chain, as listed by the source K249A K249A limits assumed)": "as the sequence (chain, as listed by the source limits assumed) above, with K249A counted along it", "assay": "capture ELISA, single alanine mutant IFNAR1-IgG captured by goat anti-hIgG-Fc; OD as % of wild type IFNAR1-IgG"}, "[27]": {"target": "human IFNAR1, membrane receptor on cells (U266 human myeloma cells; Hela and A549 cells in the functional assays) (human) (UniProt P17181)", "assay": "cell-based or functional assay"}, "[28]": {"target": "human IFNAR1, membrane receptor on cells (U266 human myeloma cells; Hela and A549 cells in the functional assays) (human) (UniProt P17181)", "assay": "flow cytometry on U266 cells, F-mAb preincubated with competitor: 10 µg soluble hIFNAR1-IgG Mutant #7 (244-249)"}, "[29]": {"target": "human IFNAR1, membrane receptor on cells (U266 human myeloma cells; Hela and A549 cells in the functional assays) (human) (UniProt P17181)", "assay": "flow cytometry on U266 cells, fluoresceinated mAb 1 µg/100 µl, no soluble hIFNAR1"}},
  "data": [
    {"substance": "control IgG (antibody)", "values": [
      {"measurement": "Mean Fluorescence Intensity", "setting": "[1]", "value": 2.99}
    ]},
    {"substance": "anti-hIFNAR1 monoclonal antibody 2E1 (hybridoma ATCC HB 12133)", "values": [
      {"measurement": "Kd", "setting": "[2]", "value": 0.066, "unit": "nM"},
      {"measurement": "% Wild type binding of mAbs", "setting": "[3]", "value": 97, "unit": "%"},
      {"measurement": "% Wild type binding of mAbs", "setting": "[4]", "value": 6, "unit": "%"},
      {"measurement": "% Wild type binding of mAbs", "setting": "[5]", "value": 66, "unit": "%"},
      {"measurement": "% Wild type binding of mAbs", "setting": "[6]", "value": 101, "unit": "%"},
      {"measurement": "% Wild type binding of mAbs", "setting": "[7]", "value": 105, "unit": "%"},
      {"measurement": "% Wild type binding of mAbs", "setting": "[8]", "value": 84, "unit": "%"},
      {"measurement": "% Wild type binding of mAbs", "setting": "[9]", "value": 87, "unit": "%"},
      {"measurement": "% Wild type binding of mAbs", "setting": "[10]", "value": 21, "unit": "%"},
      {"measurement": "% Wild type binding of mAbs", "setting": "[11]", "value": 105, "unit": "%"},
      {"measurement": "% Wild type binding of mAbs", "setting": "[12]", "value": 0, "unit": "%"},
      {"measurement": "Mean Fluorescence Intensity", "setting": "[13]", "value": 2.83},
      {"measurement": "Mean Fluorescence Intensity", "setting": "[14]", "value": 7.65},
      {"measurement": "% Wild type binding of mAbs", "setting": "[15]", "value": 36, "unit": "%"},
      {"measurement": "% Wild type binding of mAbs", "setting": "[16]", "value": 34, "unit": "%"},
      {"measurement": "% Wild type binding of mAbs", "setting": "[17]", "value": 54, "unit": "%"},
      {"measurement": "% Wild type binding of mAbs", "setting": "[18]", "value": 5, "unit": "%"},
      {"measurement": "% Wild type binding of mAbs", "setting": "[19]", "value": 7, "unit": "%"},
      {"measurement": "% Wild type binding of mAbs", "setting": "[20]", "value": 90, "unit": "%"},
      {"measurement": "% Wild type binding of mAbs", "setting": "[21]", "value": 74, "unit": "%"},
      {"measurement": "% Wild type binding of mAbs", "setting": "[22]", "value": 57, "unit": "%"},
      {"measurement": "% Wild type binding of mAbs", "setting": "[23]", "value": 92, "unit": "%"},
      {"measurement": "% Wild type binding of mAbs", "setting": "[24]", "value": 81, "unit": "%"},
      {"measurement": "% Wild type binding of mAbs", "setting": "[25]", "value": 72, "unit": "%"},
      {"measurement": "% Wild type binding of mAbs", "setting": "[26]", "value": 5, "unit": "%"},
      {"measurement": "EC50 of mAb neutralizing the anti-viral cytopathic effect of 10 units/ml IFNα1 on A549 cells (EMC virus)", "setting": "[27]", "value": 3, "unit": "µg/mL"},
      {"measurement": "EC50 of mAb neutralizing the anti-viral cytopathic effect of 10 units/ml IFNα2/1 on A549 cells (EMC virus)", "setting": "[27]", "value": 3, "unit": "µg/mL"},
      {"measurement": "EC50 of mAb neutralizing the anti-viral cytopathic effect of 10 units/ml IFNα2 on A549 cells (EMC virus)", "setting": "[27]", "value": 1, "unit": "µg/mL"},
      {"measurement": "EC50 of mAb neutralizing the anti-viral cytopathic effect of 10 units/ml IFNα5 on A549 cells (EMC virus)", "setting": "[27]", "value": 1, "unit": "µg/mL"},
      {"measurement": "EC50 of mAb neutralizing the anti-viral cytopathic effect of 10 units/ml IFNα8 on A549 cells (EMC virus)", "setting": "[27]", "value": 1, "unit": "µg/mL"},
      {"measurement": "EC50 of mAb neutralizing the anti-viral cytopathic effect of 10 units/ml IFNβ on A549 cells (EMC virus)", "setting": "[27]", "value": "> 30", "unit": "µg/mL"},
      {"measurement": "Mean Fluorescence Intensity", "setting": "[28]", "value": 7.82},
      {"measurement": "Mean Fluorescence Intensity", "setting": "[29]", "value": 7.6}
    ]}
  ]
}
